The nanobody polyreactivity screen of Harvey et al. (2022)

Experiment: yeast display, Sf9 membrane polyspecificity reagent, FACS + sequencing; frameworks hold sequencing errors
Outline: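 A synthetic nanobody library was expressed on Saccharomyces cerevisiae BJ5465 by galactose induction for 36–48 hours. The library was stained for 1 hour at 4 °C with 10% biotinylated, detergent-solubilized Sf9 membrane reagent and enriched with streptavidin microbeads before FACS. Low and high (top ~1%) gates were set on anti-HA fluorescence for expression and streptavidin fluorescence for reagent binding, and each polyreactivity label reflects the gate of origin.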

QVQLVESGGGLVQAGGSLRLSCAASGRTFDGYAMGWYRQAPGKEREMVAAISRGGGNTRYADSVKGRFTISRDNAKNTVYLQMNSLKPEDTAVYYCNKLSFFPYITDEYWGQGTQVTVSS
polyreactivity (PSR sort gate): high polyreactivity

QVQLVESGGGLVQAGGSLRLSCAASGRILRHNAMGWYRQAPGKERELVAAITRSGGRTYYADSVKGRFTISRDNAKNTVYLQMNSLKPEDTAVYDCAAGDYGWVPYNLRGSRMNYWGQGTQVTVSS
polyreactivity (PSR sort gate): high polyreactivity

QVQLVESGGGLVQAGGSLRLSCAASGFTRIYAMGWYRQAPGKERELVAAISQRGGRTYYADSVKGRFTISRDNAKNTVYLQMNSLKPEDTAVYYCAVRGPYQGRTRYYYWGQGTQVTVSS
polyreactivity (PSR sort gate): high polyreactivity

QVQLVESGGGLVQAGGSLRLSCAASGSIFRKYTMGWYKQAPGKERELVAAISGTAGRTYYADSVKGRFTISRDNAKNTVYLKMNSLKPEDTAVYYCAALRFGGYGYNYWGQGTQVTVSS
polyreactivity (PSR sort gate): high polyreactivity

QVQLVESGGALFQAGGSLRLSCAASGIIFGVYAMGWYRQAPVKERELVASITWGGGSTYYADSVKGRFTISRDNAKNTVYLQMNSLKPEDTAVYYCNKRGYPGYDWGQGTQVTVSS
polyreactivity (PSR sort gate): low polyreactivity

QVQLVESGGGLFQAGGSLRLSCAASGSTFAFYDMGWYRQATGIERELVAIIDWSGGRTYYADSVKGRFTISRDNAKHTVYLQMNSLKPQDTAVYYCAVDYEYVGGDYWGQGTQVTVSS
polyreactivity (PSR sort gate): low polyreactivity

QVQLVDSGGGLVHAGGSLRLSCAASGSSFTFYAMGWYRQAPGKERELVARISITGGSTYYADSVKGRFTISRDNAKNTVYLHMNSLKPEDTAVYYCAARYYGEHYDYWGQGTQVTVSS
polyreactivity (PSR sort gate): low polyreactivity

QVQLVESGGGLVQAGGSLRLSCAASGFTLQGYAMGWYRQAPGKERELVAAIRWIGTSTYYADSVKGRFTISRDIAKNTVYLQMNSLKPEDTAVYYCAAYRYNTPFGYWGQGTQVTVSS
polyreactivity (PSR sort gate): high polyreactivity

QVQLVESGGGLVQAGGSLRLSCAASGSIFGKNAMGWYRPAPGKERELVAAITRRGGSTYYADSVKGRFTISRDNAKNTVYLQMISLKPEDTAVYYCNALLTGGYQDSYPDDYWGQGTQVTVSS
polyreactivity (PSR sort gate): high polyreactivity

QVQLVESGGGLVQAGGSLRLSCAASGSILGYYAMGWYRQAPGTEREFVAAITRSGSRTYYADSVKGRFTISRDNAKNTVNLHMNSLKPEDTAVYYCAKKGLFQGWPTLVDYWGEGTQVTVSS
polyreactivity (PSR sort gate): high polyreactivity

QVQLVESGGGLVQAGGSLRLSCAASGGTFNQYAMGWYRQAPGKEREFVASISRRGGSTYYADSVKGRFTISRDNAKNTVYLQMNSLKPEDTAVYYCAADAFFRLDYYYWGQGTQVTVSS
polyreactivity (PSR sort gate): high polyreactivity

QVQLVESGGGLVQAGGSLRISCAASGSIFRGNAMGWYRQAPGKERELVAAISKSGGSTYYADSVKGRITISRDNAKNTVYLQMNSLKPEDTAVYYCAARTTYLYGMYYWGQGTQVTVSS
polyreactivity (PSR sort gate): low polyreactivity

QVQLVESGGGLVQAGGSLRLSCAASGITFNPNAMGWYRQAPGKERELVAVITYRGGSTYYADSVMGRFTISRDNAKNTVYLQMNSLKPADTAVYYCAAQYIGWHLYWYDYWGQGTQVTVSS
polyreactivity (PSR sort gate): low polyreactivity

QVQLVESGAGLVQAGGRLRLSCAPSGSTFIYNAMGWYRQAPGKERELVASITGGTSTNYADSVKGRFTISRDNAKNTVYLQMNSLKPEDTAVYYCAAVWVWGEYDYWGQGTQVTVSS
polyreactivity (PSR sort gate): low polyreactivity

QVHLQESGGGQVQAGGSLRLSCAASGSISYASGMGWYRQAPGTEREFVASIDPGAITNYADSVKGRFTISHDNAKNTVYLQMNSLKPEYTAVYYCAARVSTTDSHGYWGQGTQVTVSS
polyreactivity (PSR sort gate): high polyreactivity

QVQLVESGGGLVQAGGSLRLSCAASGSTFSKYAMGWYRQAPGKERELVATISSTGSTNYADSVKGRFTISRDNAKNTVYLQMNSLKPEDTAVSYCNAGRRGRPYYKYYYWGQGTQVTVSS
polyreactivity (PSR sort gate): high polyreactivity

QFQLVDSGGGLVQAGGSLRLSCAPSGRIFQIYAMGWYRQAPGKERELVAAISGSTSYADSVKGRFTISRDNAKNTVYLQMISLKPEDTAVYYCAARALLPYGEYWGQGSQVTVSS
polyreactivity (PSR sort gate): low polyreactivity

QVQLVESGGGLVQAGGSLRLSCAASGSIFSVYAMGWYRQAPGKERELVAAISRGDSTYYADSVKGRFTISRDNAKNTVYLQMNSLKPEDTAVYYCAKAYLRYYDGPYDYWGQGTQVTVSS
polyreactivity (PSR sort gate): low polyreactivity

QVHLVESGGGLVQAGGSLRLSCSASGRTFPKYAMGWYRQAPGKERELVAAINKSGGSRYYADSVKGRFTISRDYAKNTVYLQMNSLKPEDTAVYYCAADWRGWSFFRGDDYWGQGTQVTVSS
polyreactivity (PSR sort gate): high polyreactivity

QVQLVESGGGLVQAGGSLRLSCAASGSIFVANAMGWYRQAPGKERELVAAISGSGDRTRYADSVKGRFTISRDNAKNTVYLQMNSLKPEDTAVYYCNARYYASGNLYNYWGQGTQVTVSS
polyreactivity (PSR sort gate): high polyreactivity

QVQLEESGGGLVQAGGSLRLSCAASGFIFAQNAMGWYRQAPGKERELVARIRVSGTRTYYADSVKGRFTISRDNAKNTVYLQMNSLKQEDTAVYYCAAVPYTYDFGYKRFYWGQGTQVTVSS
polyreactivity (PSR sort gate): high polyreactivity

QVQLVESGGGLVQAGGSLRLSCAASGFIFFEYAMGWYRQAPGKERELVAAISWSDDTTYYADSVKGRFTISRDNAKNTVYLQMNSLKPEDTAVYYCAAEKVSGQGEMDYWGQGTQVTVSS
polyreactivity (PSR sort gate): low polyreactivity

QFQLVESGGGLVQAGGSLRLSCAASGGTFDPYAMGLYRQAPGKERELVAAINYGGGSTYYADSVKGRFTISRDNAKNTVYLQMNSLKPEDTAVYYCAADGGRLTTSQLAQWEYDYWGQGTQVTVSS
polyreactivity (PSR sort gate): low polyreactivity

QVQLVESGGGLVQAGGSLRLSFAASGSIFKGYTMGWYIQAPGKEREFVASISRRGGSTYYADSVKGRFTISRDNAKNTVYLQMNSLKPEYTAVYYCAKDYGKAYDYWGQGTQVTVSS
polyreactivity (PSR sort gate): high polyreactivity

QVQLVESGGGLVQAGGSLRLSCAASGSIFYIYAMGWYRQAPGKERELVAGIRNGGSTKYADSVKGRFTISRDNAKNTVYLQMNSLKPEDTAVYYCAARYYRPYTSSWAHNYRLDDWGQGSQVTVSS
polyreactivity (PSR sort gate): high polyreactivity

QVQLVESGGGLVQAGGSLRLSCAASGRIFYTYAMGRYRQAPGKERELVAVISSGGSTNYADSVKGRFTISRDTAKNNVYLQMNSLKPEDTAVYYCNADTGAADYFDFDYWGQGTQVTVSS
polyreactivity (PSR sort gate): low polyreactivity

QVHLVESGGGLVQAGGSLRLSCASSGGTFPPNTMGWYRQAPGKEREFVAAITWRGSSTYYADSVKGRFTISRDNAKITFFLQMNSLKPEDSAVDYCAARRAYERMGFWGQGTQVTVSS
polyreactivity (PSR sort gate): high polyreactivity

QVQLVESGGGLVQAGGSLRLSCAASGRTFYYNDMGWYRQAPGKERELVATISSGGSTYYADSVKGRFTISRDNAKNTVYLQMNSLKPEDTAVYYCAKRRRYDGWYAGPLYKYDYWGQGTQVTVSS
polyreactivity (PSR sort gate): low polyreactivity

QVQLVESGGGLVQAGGSLRLSCAASGSTFKVYAIGWYRQAPGKERELVAGISSGGNTNYADSVKGRFTISRDNAKNTVYLQMNSLKPEDTAVYYCNTDWYLPRYVLLGYFSGTEDYWGQGTQVTVSS
polyreactivity (PSR sort gate): low polyreactivity

QVQLVESGGGLVQAGGSLRLSCAASGGIFYHNAMGWYRQAPGKERELVAAISGRGGRTYYADSVKGRFTISRDNAKNTVYLQMNSLKPEDTAVYYCAAGGQARHDYWGQGTQVTVSS
polyreactivity (PSR sort gate): low polyreactivity

QVQLVESGGGLVQAGGRLRLSCAASGSTFRLYAMGRYRQAPGKERELVAAIRGSGGSTYYADSVKGRFTISRDNAKNTVYLQMNSMKPEDNAVYYCAARVVVARRSYVGYGYWGQGTQVTVSS
polyreactivity (PSR sort gate): high polyreactivity

QVQLVESAGGLVQAGGSLRLSCAASGRNLYQYAMGWYRQAPGKERELVAAITWNGGSTYYADSVKGRFTISRDNAKNTVYLQINSLKPEDTAVYYCAADSVRPWYAYKAHDYWGQGTQVTVSS
polyreactivity (PSR sort gate): low polyreactivity
